Assay results published in the supplement of paper PMC10126150.
± gives the standard deviation of the averaged measurements.

System: ATP
Test: switch fluorescence ratio, 500 uM ATP over buffer (Cy3 cluster intensity, sum of 5 cycles each) (fold (ratio)); higher = stronger signal-on switching upon ATP binding; sequences stand for … in TCGTCGGCAGCGTCAGATGTGTATAAGAGACAGTTTTTTTTTTTTTTTTTTTTTTTTT…TC
Settings: aptamer strand: ATP DNA aptamer (quencher-CACCTGGGGGAGTATTGCGGAGGAAGG + anchor), 100 nM annealed; ATP concentration: 500 uM
Summary of the method: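 The fluorescence ratio divides summed target-cycle Cy3 intensity by summed buffer-cycle Cy3 intensity for each cluster and is averaged per switch-domain sequence. Cy3-labelled switching-strand clusters on a modified Illumina MiSeq flow-cell were annealed to 100 nM quencher-labelled ATP aptamer, then imaged in selection buffer and again after 15 min with 500 uM ATP at 22 °C. Five such cycles were run, with NaOH stripping and re-annealing between them, and clusters outside 100-1000 RFU were excluded.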
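Also: ATP exposure 15 min at 22 °C before imaging.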

| Sequence | switch fluorescence ratio |
| --- | --- |
| TAATAAGGTG | 1.13 ± 0.23 |
| TAATAATGGG | 1.02 ± 0.042 |
| TAATAATTGT | 1.018 ± 0.0078 |
| TAATAGGGAT | 0.98 ± 0.019 |
| TAATAGGGCA | 1.002 ± 0.007 |
| TAATAGGGCG | 1.01 ± 0.076 |
| TAATATAAAC | 1.002 ± 0.0078 |
| TAATATGGTT | 1.03 ± 0.055 |
| TAATATTGGG | 0.989 ± 0.029 |
| TAATCAGGTA | 1.1 ± 0.02 |
| TAATCAGTGC | 0.998 ± 0.068 |
| TAATCATTGG | 1.01 ± 0.065 |
| TAATCCTGTA | 0.9994 ± 0.003 |
| TAATCGAGGG | 0.9831 ± 0.0091 |
| TAATCTGGCG | 1.026 ± 0.0054 |
| TAATCTTAGG | 0.9838 ± 0.0079 |
| TAATCTTTTT | 1.01 ± 0.021 |
| TAATGAAGCG | 0.993 ± 0.018 |
| TAATGCAATT | 1.018 ± 0.0064 |
| TAATGCCTGC | 1 ± 0.093 |
| TAATGCGGTT | 1.016 ± 0.004 |
| TAATGCTGTT | 0.997 ± 0.049 |
| TAATGGAAGG | 1 ± 0.024 |
| TAATGGAGGC | 1.05 ± 0.13 |
| TAATGGATGG | 0.966 ± 0.019 |
| TAATGGGGGA | 1.01 ± 0.016 |

| Sequence | switch fluorescence ratio |
| --- | --- |
| TAATGGGGGG | 0.989 ± 0.037 |
| TAATGTATGA | 0.972 ± 0.04 |
| TAATGTGTCG | 1.021 ± 0.0042 |
| TAATGTTTCG | 0.978 ± 0.013 |
| TAATGTTTTG | 1.01 ± 0.018 |
| TAATTAGAGG | 1.01 ± 0.027 |
| TAATTAGCGC | 1.03 ± 0.016 |
| TAATTAGCGG | 1.01 ± 0.018 |
| TAATTAGGGA | 0.986 ± 0.044 |
| TAATTCAATG | 0.997 ± 0.066 |
| TAATTGCTCG | 1.062 ± 0.0041 |
| TAATTGGTGT | 1.02 ± 0.043 |
| TAATTGTGTG | 1 ± 0.038 |
| TAATTTAAAA | 1.05 ± 0.12 |
| TAATTTATCG | 1.04 ± 0.038 |
| TAATTTATTT | 1.03 ± 0.029 |
| TAATTTCCGG | 0.994 ± 0.029 |
| TAATTTGAAA | 1.03 ± 0.07 |
| TAATTTGGTG | 1.043 ± 0.0083 |
| TAATTTGTTT | 1.03 ± 0.025 |
| TAATTTTCGT | 1.02 ± 0.03 |
| TAATTTTGCG | 1 ± 0.015 |
| TAATTTTGGG | 0.999 ± 0.047 |
| TAATTTTTGG | 0.992 ± 0.023 |
| TAATTTTTTA | 0.976 ± 0.03 |
| TACAAAAAAT | 1.03 ± 0.047 |

| Sequence | switch fluorescence ratio |
| --- | --- |
| TACAAAAGGT | 1.07 ± 0.094 |
| TACAAGGGTG | 1.1 ± 0.03 |
| TACAAGTCGT | 0.98 ± 0.012 |
| TACACATTTT | 1.07 ± 0.026 |
| TACACCCTTC | 1.183 ± 0.011 |
| TACACTGGGT | 0.999 ± 0.022 |
| TACACTTGTA | 1.03 ± 0.057 |
| TACAGAATGA | 1.003 ± 0.0041 |
| TACAGACTGT | 1.04 ± 0.021 |
| TACAGAGGG | 0.966 ± 0.06 |
| TACAGCAGGG | 1.04 ± 0.012 |
| TACAGCAGTG | 1.02 ± 0.023 |
| TACAGCTTTT | 1.01 ± 0.031 |
| TACAGGGGTC | 1.06 ± 0.019 |
| TACAGGTATC | 0.9796 ± 0.0048 |
| TACAGGTTTC | 1 ± 0.023 |
| TACAGTCTGG | 1.007 ± 0.0066 |
| TACAGTGAGC | 1.026 ± 0.0019 |
| TACATCGTCC | 1.05 ± 0.024 |
| TACATGAGTA | 1.03 ± 0.023 |
| TACATGCTGC | 1.03 ± 0.022 |
| TACATGTCGT | 0.996 ± 0.018 |
| TACATTATAG | 1.01 ± 0.036 |
| TACATTGTGC | 1.01 ± 0.015 |
| TACATTTAGG | 0.9964 ± 0.0092 |
| TACCAGCATT | 1.1 ± 0.051 |

| Sequence | switch fluorescence ratio |
| --- | --- |
| TACCAGGCGG | 1.04 ± 0.037 |
| TACCAGTGAT | 1 ± 0.018 |
| TACCATCTTG | 0.997 ± 0.037 |
| TACCATGAAT | 1.01 ± 0.045 |
| TACCATGGTA | 0.987 ± 0.035 |
| TACCCTTGCC | 1.22 ± 0.25 |
| TACCCTTGGG | 0.9937 ± 0.0072 |
| TACCCTTTTT | 1.01 ± 0.054 |
| TACCGAAGGG | 0.989 ± 0.028 |
| TACCGGGGGT | 1.63 ± 0.83 |
| TACCGTAAAC | 1.8 ± 0.7 |
| TACCGTGTCC | 1.11 ± 0.06 |
| TACCGTTTTT | 1.01 ± 0.045 |
| TACCTAGTGC | 1.035 ± 0.0016 |
| TACCTGCGAA | 2.07 ± 1.3 |
| TACGAGACGG | 1.095 ± 0.0059 |
| TACGAGCTGG | 0.995 ± 0.01 |
| TACGAGTTAA | 0.97 ± 0.015 |
| TACGAGTTTT | 0.996 ± 0.01 |
| TACGATATAC | 3.09 ± 0.34 |
| TACGATGCGG | 1.07 ± 0.038 |
| TACGATGTGC | 1.0053 ± 0.00075 |
| TACGCAGAAT | 3.38 ± 3.2 |
| TACGCGGGGG | 1.019 ± 0.0098 |
| TACGCGGTTG | 1.07 ± 0.044 |
| TACGCGTGGG | 1.004 ± 0.0084 |

| Sequence | switch fluorescence ratio |
| --- | --- |
| TACGGAACGG | 1.07 ± 0.029 |
| TACGGAGATT | 1.01 ± 0.035 |
| TACGGATACT | 1.27 ± 0.026 |
| TACGGATTGT | 0.988 ± 0.027 |
| TACGGGAGGG | 1.07 ± 0.022 |
| TACGGGCGTC | 1 ± 0.028 |
| TACGGGGCGA | 1.07 ± 0.036 |
| TACGGGGGAC | 1.07 ± 0.047 |
| TACGGGGGTA | 1.02 ± 0.036 |
| TACGGGGGTG | 1.01 ± 0.042 |
| TACGGGGTCA | 0.971 ± 0.03 |
| TACGGTAGCC | 1.043 ± 0.0061 |
| TACGGTCCTG | 0.99156 ± 0.00092 |
| TACGTAACTC | 1.28 ± 0.028 |
| TACGTATGAA | 1.17 ± 0.014 |
| TACGTATTTA | 1.13 ± 0.0012 |
| TACGTATTTT | 1.023 ± 0.0035 |
| TACGTCACGA | 1.42 ± 0.19 |
| TACGTCCCGG | 1.08 ± 0.014 |
| TACGTCTTGG | 1.04 ± 0.033 |
| TACGTGCTTG | 0.989 ± 0.03 |
| TACGTGGGTG | 1.05 ± 0.02 |
| TACGTGTAGC | 1.01 ± 0.011 |
| TACGTGTTTG | 1.01 ± 0.033 |
| TACTACTTAT | 1.04 ± 0.053 |
| TACTAGGCG | 1.014 ± 0.0083 |

| Sequence | switch fluorescence ratio |
| --- | --- |
| TACTAGTTGG | 0.997 ± 0.011 |
| TACTCATGGG | 1.01 ± 0.035 |
| TACTCGAGGG | 1.08 ± 0.031 |
| TACTCGGATT | 0.996 ± 0.015 |
| TACTCGGGAA | 3.05 ± 2 |
| TACTGACTTG | 0.989 ± 0.014 |
| TACTGGCCGG | 1.03 ± 0.029 |
| TACTGGGGTT | 0.981 ± 0.031 |
| TACTGGTGAC | 1.06 ± 0.012 |
| TACTGGTTGG | 1 ± 0.021 |
| TACTGTAGGG | 1.12 ± 0.029 |
| TACTGTGAGC | 1.016 ± 0.0076 |
| TACTGTGGGG | 1.009 ± 0.0094 |
| TACTTAGTTT | 1.01 ± 0.077 |
| TACTTATGGA | 0.984 ± 0.043 |
| TACTTCATTC | 1.037 ± 0.0095 |
| TACTTGAGTT | 1.05 ± 0.012 |
| TACTTGTGTT | 1.02 ± 0.046 |
| TACTTTGGGG | 0.989 ± 0.022 |
| TACTTTTCGT | 0.995 ± 0.024 |
| TACTTTTGCT | 0.9669 ± 0.0014 |
| TAGAAAAAGA | 0.988 ± 0.016 |
| TAGAAAAGAG | 1.01 ± 0.024 |
